Measured values: paper PMC7114247

These substances were tested against rVP35 wt (Zaire ebolavirus) (UniProt Q05127).
Chain of UniProt Q05127 (Q05127 whole entry): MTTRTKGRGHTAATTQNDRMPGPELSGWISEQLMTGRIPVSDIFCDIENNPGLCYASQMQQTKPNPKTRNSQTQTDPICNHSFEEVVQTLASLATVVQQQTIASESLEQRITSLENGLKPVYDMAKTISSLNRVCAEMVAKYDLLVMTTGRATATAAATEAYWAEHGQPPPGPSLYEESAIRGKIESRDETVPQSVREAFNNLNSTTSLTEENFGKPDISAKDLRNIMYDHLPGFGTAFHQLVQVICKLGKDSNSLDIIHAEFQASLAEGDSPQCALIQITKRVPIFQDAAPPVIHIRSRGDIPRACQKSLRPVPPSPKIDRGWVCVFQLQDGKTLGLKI
IVT 50 bp dsRNA gave a Kd of 3.2 nM. With IVT 150 bp dsRNA the Kd was 2.4 nM. For IVT 500 bp dsRNA, the Kd was 2.8 nM.
